Measurements taken from US20260070987A1.

Target: equine FcRn (large alpha subunit p51) / equine beta-2-microglobulin complex, biotinylated (equine) (UniProt P30441)
Test: SPR (Biacore), pH 6

Sequence of UniProt P30441 (P30441 21-118, one chain of several): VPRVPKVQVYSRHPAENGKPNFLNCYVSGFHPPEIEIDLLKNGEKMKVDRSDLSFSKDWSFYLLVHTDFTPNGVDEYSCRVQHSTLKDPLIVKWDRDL

Binder	Kd [nM]
equine IgG1 WT (antibody, part only; not given: Variable domains, not shown: another chain or arm of the molecule) constant: ASTTAPKVFALAPGCGTTSDSTVALGCLVSGYFPEPVKVSWNSGSLTSGVHTFPSVLQSSGFYSLSSMVTVPASTWTSETYICNVVHAASNFKVDKRIEPIPDNHQKVCDMSKCPKCPAPELLGGPSVFIFPPNPKDTLMITRTPEVTCVVVDVSQENPDVKFNWYMDGVEVRTATTRPKEEQFNSTYRVVSVLRIQHQDWLSGKEFKCKVNNQALPQPIERTITKTKGRSQEPQVYVLAPHPDELSKSKVSVTCLVKDFYPPEINIEWQSNGQPELETKYSTTQAQQDSDGSYFLYSKLSVDRNRWQQGTTFTCGVMHEALHNHYTQKNVSKNPGK	22.5
equine IgG1 T286D (antibody, part only; not given: variable domains, not shown: another chain or arm of the molecule) constant: ASTTAPKVFALAPGCGTTSDSTVALGCLVSGYFPEPVKVSWNSGSLTSGVHTFPSVLQSSGFYSLSSMVTVPASTWTSETYICNVVHAASNFKVDKRIEPIPDNHQKVCDMSKCPKCPAPELLGGPSVFIFPPNPKDTLMITRTPEVTCVVVDVSQENPDVKFNWYMDGVEVRDATTRPKEEQFNSTYRVVSVLRIQHQDWLSGKEFKCKVNNQALPQPIERTITKTKGRSQEPQVYVLAPHPDELSKSKVSVTCLVKDFYPPEINIEWQSNGQPELETKYSTTQAQQDSDGSYFLYSKLSVDRNRWQQGTTFTCGVMHEALHNHYTQKNVSKNPGK	23.9
equine IgG1 N434G (antibody, part only; not given: variable domains, not shown: another chain or arm of the molecule) constant: ASTTAPKVFALAPGCGTTSDSTVALGCLVSGYFPEPVKVSWNSGSLTSGVHTFPSVLQSSGFYSLSSMVTVPASTWTSETYICNVVHAASNFKVDKRIEPIPDNHQKVCDMSKCPKCPAPELLGGPSVFIFPPNPKDTLMITRTPEVTCVVVDVSQENPDVKFNWYMDGVEVRTATTRPKEEQFNSTYRVVSVLRIQHQDWLSGKEFKCKVNNQALPQPIERTITKTKGRSQEPQVYVLAPHPDELSKSKVSVTCLVKDFYPPEINIEWQSNGQPELETKYSTTQAQQDSDGSYFLYSKLSVDRNRWQQGTTFTCGVMHEALHGHYTQKNVSKNPGK	5.57
equine IgG1 N434H (antibody, part only; not given: Variable domains, not shown: another chain or arm of the molecule) constant: ASTTAPKVFALAPGCGTTSDSTVALGCLVSGYFPEPVKVSWNSGSLTSGVHTFPSVLQSSGFYSLSSMVTVPASTWTSETYICNVVHAASNFKVDKRIEPIPDNHQKVCDMSKCPKCPAPELLGGPSVFIFPPNPKDTLMITRTPEVTCVVVDVSQENPDVKFNWYMDGVEVRTATTRPKEEQFNSTYRVVSVLRIQHQDWLSGKEFKCKVNNQALPQPIERTITKTKGRSQEPQVYVLAPHPDELSKSKVSVTCLVKDFYPPEINIEWQSNGQPELETKYSTTQAQQDSDGSYFLYSKLSVDRNRWQQGTTFTCGVMHEALHHHYTQKNVSKNPGK	4.1
equine IgG1 N434I (antibody, part only; not given: variable domains, not shown: another chain or arm of the molecule) constant: ASTTAPKVFALAPGCGTTSDSTVALGCLVSGYFPEPVKVSWNSGSLTSGVHTFPSVLQSSGFYSLSSMVTVPASTWTSETYICNVVHAASNFKVDKRIEPIPDNHQKVCDMSKCPKCPAPELLGGPSVFIFPPNPKDTLMITRTPEVTCVVVDVSQENPDVKFNWYMDGVEVRTATTRPKEEQFNSTYRVVSVLRIQHQDWLSGKEFKCKVNNQALPQPIERTITKTKGRSQEPQVYVLAPHPDELSKSKVSVTCLVKDFYPPEINIEWQSNGQPELETKYSTTQAQQDSDGSYFLYSKLSVDRNRWQQGTTFTCGVMHEALHIHYTQKNVSKNPGK	44.3
equine IgG1 N434K (antibody, part only; not given: variable domains, not shown: another chain or arm of the molecule) constant: ASTTAPKVFALAPGCGTTSDSTVALGCLVSGYFPEPVKVSWNSGSLTSGVHTFPSVLQSSGFYSLSSMVTVPASTWTSETYICNVVHAASNFKVDKRIEPIPDNHQKVCDMSKCPKCPAPELLGGPSVFIFPPNPKDTLMITRTPEVTCVVVDVSQENPDVKFNWYMDGVEVRTATTRPKEEQFNSTYRVVSVLRIQHQDWLSGKEFKCKVNNQALPQPIERTITKTKGRSQEPQVYVLAPHPDELSKSKVSVTCLVKDFYPPEINIEWQSNGQPELETKYSTTQAQQDSDGSYFLYSKLSVDRNRWQQGTTFTCGVMHEALHKHYTQKNVSKNPGK	17.5
equine IgG1 N434M (antibody, part only; not given: Variable domains, not shown: another chain or arm of the molecule) constant: ASTTAPKVFALAPGCGTTSDSTVALGCLVSGYFPEPVKVSWNSGSLTSGVHTFPSVLQSSGFYSLSSMVTVPASTWTSETYICNVVHAASNFKVDKRIEPIPDNHQKVCDMSKCPKCPAPELLGGPSVFIFPPNPKDTLMITRTPEVTCVVVDVSQENPDVKFNWYMDGVEVRTATTRPKEEQFNSTYRVVSVLRIQHQDWLSGKEFKCKVNNQALPQPIERTITKTKGRSQEPQVYVLAPHPDELSKSKVSVTCLVKDFYPPEINIEWQSNGQPELETKYSTTQAQQDSDGSYFLYSKLSVDRNRWQQGTTFTCGVMHEALHMHYTQKNVSKNPGK	29
equine IgG1 N434P (antibody, part only; not given: variable domains, not shown: another chain or arm of the molecule) constant: ASTTAPKVFALAPGCGTTSDSTVALGCLVSGYFPEPVKVSWNSGSLTSGVHTFPSVLQSSGFYSLSSMVTVPASTWTSETYICNVVHAASNFKVDKRIEPIPDNHQKVCDMSKCPKCPAPELLGGPSVFIFPPNPKDTLMITRTPEVTCVVVDVSQENPDVKFNWYMDGVEVRTATTRPKEEQFNSTYRVVSVLRIQHQDWLSGKEFKCKVNNQALPQPIERTITKTKGRSQEPQVYVLAPHPDELSKSKVSVTCLVKDFYPPEINIEWQSNGQPELETKYSTTQAQQDSDGSYFLYSKLSVDRNRWQQGTTFTCGVMHEALHPHYTQKNVSKNPGK	25
equine IgG1 N434Q (antibody, part only; not given: variable domains, not shown: another chain or arm of the molecule) constant: ASTTAPKVFALAPGCGTTSDSTVALGCLVSGYFPEPVKVSWNSGSLTSGVHTFPSVLQSSGFYSLSSMVTVPASTWTSETYICNVVHAASNFKVDKRIEPIPDNHQKVCDMSKCPKCPAPELLGGPSVFIFPPNPKDTLMITRTPEVTCVVVDVSQENPDVKFNWYMDGVEVRTATTRPKEEQFNSTYRVVSVLRIQHQDWLSGKEFKCKVNNQALPQPIERTITKTKGRSQEPQVYVLAPHPDELSKSKVSVTCLVKDFYPPEINIEWQSNGQPELETKYSTTQAQQDSDGSYFLYSKLSVDRNRWQQGTTFTCGVMHEALHQHYTQKNVSKNPGK	12.8
equine IgG1 N434R (antibody, part only; not given: variable domains, not shown: another chain or arm of the molecule) constant: ASTTAPKVFALAPGCGTTSDSTVALGCLVSGYFPEPVKVSWNSGSLTSGVHTFPSVLQSSGFYSLSSMVTVPASTWTSETYICNVVHAASNFKVDKRIEPIPDNHQKVCDMSKCPKCPAPELLGGPSVFIFPPNPKDTLMITRTPEVTCVVVDVSQENPDVKFNWYMDGVEVRTATTRPKEEQFNSTYRVVSVLRIQHQDWLSGKEFKCKVNNQALPQPIERTITKTKGRSQEPQVYVLAPHPDELSKSKVSVTCLVKDFYPPEINIEWQSNGQPELETKYSTTQAQQDSDGSYFLYSKLSVDRNRWQQGTTFTCGVMHEALHRHYTQKNVSKNPGK	14
equine IgG1 N434S (antibody, part only; not given: variable domains, not shown: another chain or arm of the molecule) constant: ASTTAPKVFALAPGCGTTSDSTVALGCLVSGYFPEPVKVSWNSGSLTSGVHTFPSVLQSSGFYSLSSMVTVPASTWTSETYICNVVHAASNFKVDKRIEPIPDNHQKVCDMSKCPKCPAPELLGGPSVFIFPPNPKDTLMITRTPEVTCVVVDVSQENPDVKFNWYMDGVEVRTATTRPKEEQFNSTYRVVSVLRIQHQDWLSGKEFKCKVNNQALPQPIERTITKTKGRSQEPQVYVLAPHPDELSKSKVSVTCLVKDFYPPEINIEWQSNGQPELETKYSTTQAQQDSDGSYFLYSKLSVDRNRWQQGTTFTCGVMHEALHSHYTQKNVSKNPGK	10
